One test concerns the target rhPD-L1 (human, UniProt Q9NZQ7). Nature of the test: ELISA. In general terms: ELISA stands for enzyme-linked immunosorbent assay.
Test [1] deals with T1, PD-L1 (human, UniProt Q9NZQ7). Description: FACS, 4C.
The next test addresses SSTR4 (human, UniProt P31391). Description: FACS, membrane proteome array titration.
Test [2] deals with T1, PD-L1. Description: competition, FACS blocking of biotin-PD-1, 4C.

T1 sequence (Q9NZQ7 19-238): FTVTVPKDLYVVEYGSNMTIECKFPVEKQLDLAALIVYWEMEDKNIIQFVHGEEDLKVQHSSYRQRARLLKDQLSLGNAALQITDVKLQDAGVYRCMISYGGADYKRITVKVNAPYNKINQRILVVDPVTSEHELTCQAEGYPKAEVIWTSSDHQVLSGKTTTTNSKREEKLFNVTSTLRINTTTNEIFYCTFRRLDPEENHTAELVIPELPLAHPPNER
Sequence of rhPD-L1 (Q9NZQ7 19-238): as above
Sequence of SSTR4 (P31391 whole entry): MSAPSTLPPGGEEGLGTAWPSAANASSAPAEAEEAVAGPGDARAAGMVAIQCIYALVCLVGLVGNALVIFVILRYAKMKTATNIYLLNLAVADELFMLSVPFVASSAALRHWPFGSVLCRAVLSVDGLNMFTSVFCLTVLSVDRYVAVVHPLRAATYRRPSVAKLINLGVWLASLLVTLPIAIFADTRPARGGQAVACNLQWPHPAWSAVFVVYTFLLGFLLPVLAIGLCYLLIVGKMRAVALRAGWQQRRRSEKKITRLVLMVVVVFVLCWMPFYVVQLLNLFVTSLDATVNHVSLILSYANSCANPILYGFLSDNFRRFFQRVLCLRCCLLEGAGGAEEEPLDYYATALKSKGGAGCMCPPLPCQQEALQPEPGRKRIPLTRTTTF

B1: TCRC-L8 (antibody, V domains shown)
VH: QVQLQESGPGLVKPSETLSLTCTVSGDSITSGYWNWIRQPPGKGLEYMGYISFTGSTYYNPSLKSRVTISVDTSKNQFSLKLSSVTAADTAVYYCARKREWILHPMDYWGQGTLVTVSS
VL: AIQLTQSPSSLSASVGDRVTITCSASSSVSYMHWYQQKPGKAPKLWIYDTSKLASGVPSRFSGSGSGTDFTLTISSLQPEDFATYYCFQESGYPLTFGGGTKLTVL
For B1, the Kd came to 0.036 µg/mL with rhPD-L1 and 0.058 µg/mL with PD-L1 [1]. Further, the binding result with SSTR4 is listed as “no binding”. Also, in the test with PD-L1 [2], the EC50 came out at 0.058 µg/mL.

B2: TCRC-L2 (antibody, V domains shown)
VH: EVQLQESGPSLVKPSQTLSLTCSVTGDSITSGYWNWIRKFPENKLEYMGYISFTGSTYYNPSLKSRISITRDTSKNQYYLQLNSVTTEDTATYYCARKREWILHPMDYWGQGTSVTVSS
VL: ENVLTQSPAIMSASPGEKVTMTCSASSSVSYMHWYQQKSLTSPKLWIYDTSKLASGVPGRFSGSGSGNFYSLTISSMEAEDVATYYCFQESGYPLTFGAGTKLELK
Turning to B2, the Kd with rhPD-L1 came to 0.04 µg/mL; with PD-L1 [1], 0.074 µg/mL. This molecule also came in with an EC50 in the test with PD-L1 [2] of 0.074 µg/mL.

Usually Kd stands for the free concentration of one partner at which half of the binding sites on the other are occupied at equilibrium, for simple one-to-one binding. Higher therefore signals a looser complex. In general, EC50 refers to the midpoint of the concentration-response curve. Read a high EC50 as weaker potency.

(Values after patent publication US20260317389 (published 2026).)
